Data set [1] deals with His-BcpT (recombinant N-terminal His-tagged BcpT without signal sequence).

Consider Factor Xa, for which, in data set [1], the “cleavage of His-tagged BcpT (Coomassie gel, N-terminal sequencing of fragments)” value is “FXa cleaves after R65 and R199 of two Leu-Thr-Arg (LTR) motifs”. Also, the entries for the “cleavage by FXa (Coomassie gel)” value with His-BcpT R199N, with His-BcpT R65N:R199N and in the data set with His-BcpT R65N were “are not cleaved by FXa (other than releasing the His-tag)”, “are not cleaved by FXa (other than releasing the His-tag)” and “is cleaved only at the R199 site”, respectively.

As for “doripain A activated with trypsin, DpnA(a)”, the “cleavage and activation of BcpT (Coomassie gel, agar overlay)” value in data set [1] was “The active forms of both proteases cleave and activate BcpT”. For the same substance, the “cleavage of BcpT site mutant (Western immunoblot)” value in the data set on His-BcpT R199N is reported as “both proteases can cleave BcpT^R199N at the R65 site, which FXa does not”.

Regarding “doripain A, full-length recombinant proenzyme (not trypsin treated)”, in data set [1], the “activation of BcpT (Coomassie gel, agar overlay)” value is “DpnA remains full-length and cannot activate BcpT”.

Take doripain B (DpnB): the “cleavage and activation of BcpT (Coomassie gel, agar overlay)” value in data set [1] was “The active forms of both proteases cleave and activate BcpT”. Further, the “cleavage of BcpT site mutant (Western immunoblot)” value with His-BcpT R199N is “both proteases can cleave BcpT^R199N at the R65 site, which FXa does not”.

Values taken from patent publication US20260014211.
